Among the data in ChEMBL document CHEMBL4725261, “Design, synthesis and evaluation of carbamate-linked uridyl-based inhibitors of human ST6Gal I” (Bioorg Med Chem, 2020) are Km values, retold here.

Substrate in the series: CC(=O)N[C@H]1[C@H]([C@H](O)[C@H](O)CO)O[C@](OP(=O)(O)OC[C@H]2O[C@@H](n3ccc(N)nc3=O)[C@H](O)[C@@H]2O)(C(=O)O)C[C@@H]1O
The series is described as follows: Binding affinity to recombinant human N-terminal 6His-tagged ST6Gal-1 (Glu44 to Cys406 residues).

B1: Beta-galactoside alpha-2,6-sialyltransferase 1 (Homo sapiens), P15907 (protein)
chain: MIHTNLKKKFSCCVLVFLLFAVICVWKEKKKGSYYDSFKLQTKEFQVLKSLGKLAMGSDSQSVSSSSTQDPHRGRQTLGSLRGLAKAKPEASFQVWNKDSSSKNLIPRLQKIWKNYLSMNKYKVSYKGPGPGIKFSAEALRCHLRDHVNVSMVEVTDFPFNTSEWEGYLPKESIRTKAGPWGRCAVVSSAGSLKSSQLGREIDDHDAVLRFNGAPTANFQQDVGTKTTIRLMNSQLVTTEKRFLKDSLYNEGILIVWDPSVYHSDIPKWYQNPDYNFFNNYKTYRKLHPNQPFYILKPQMPWELWDILQEISPEEIQPNPPSSGMLGIIIMMTLCDQVDIYEFLPSKRKTDVCYYYQKFFDSACTMGAYHPLLYEKNLVKHLNQGTDEDIYLLGKATLPGFRTIHC
One may read the Km as the substrate concentration at which the rate is half of its maximum. Take B1: the Km was 37.2 µM.
